From paper PMC7859452, “A Dimerization Site at SCR-17/18 in Factor H Clarifies a New Mechanism for Complement Regulatory Control” (Frontiers in Immunology, 2020) come the findings set out here.

The term stoichiometry N denotes the number of molecules, sites or subunits per partner or assembly. As usually defined, the Kd is a measure of binding affinity in units of concentration.

Data set [1] concerns the molecule itself. Kind of data set: AUC; sedimentation velocity, c(s) size distribution (SEDFIT), 50,000 rpm, 20 °C, 10 mM Hepes pH 7.4, 50 mM NaCl (low salt control; data not shown); KD of dimer to monomers from integration of the c(s) peaks.
Data set [2] concerns the molecule itself. Kind of data set: AUC; sedimentation velocity, c(s) size distribution (SEDFIT), 50,000 rpm, 20 °C, 10 mM Hepes pH 7.4, 137 mM NaCl, concentration series 0.2 – 3 mg/ml; KD of dimer to monomers from integration of the c(s) peaks.

B1: Complement Factor H SCR-17H fragment (domain or fragment)
chain: TDCLSLPSFENAIPMGEKKDVYKAGEQVTYTCATYYKMDGASNVTCINSRWTGRPTCRDTS
modifications: also: N-linked glycan chain, site not given here
Take B1: in data set [1], the “stoichiometry N” value came to 2. Further, in data set [2], the equilibrium dissociation constant (Kd) worked out at 5 ± 4 µM and the percent dimer was determined as 80%.

B2: Complement Factor H SCR-18H fragment (domain or fragment)
chain: TSCVNPPTVQNAYIVSRQMSKYPSGERVRYQCRSPYEMFGDEEVMCLNGNWTEPPQCKDST
modifications: also: N-linked glycan chain, site not given here
For B2, in data set [1], the dissociation constant Kd was approximately 60 µM and the “stoichiometry N” value was 2. In data set [2], this protein had a Kd of 37 ± 27 µM and a percent dimer of approximately 50%.

B3: Complement Factor H SCR-17/18H fragment (domain or fragment)
chain: TDCLSLPSFENAIPMGEKKDVYKAGEQVTYTCATYYKMDGASNVTCINSRWTGRPTCRDTSCVNPPTVQNAYIVSRQMSKYPSGERVRYQCRSPYEMFGDEEVMCLNGNWTEPPQCKDST
modifications: N-linked glycan chains on SCR-17 and SCR-18
For the protein B3, in data set [1], the Kd turned out to be 2 ± 1 µM. For the same protein, in data set [2], binding was put at a Kd of 3 ± 1 µM, the percent dimer was found to be 80% and the “stoichiometry N” value was 2.

B4: Complement Factor H SCR-18/20 fragment (domain or fragment)
chain: TSCVNPPTVQNAYIVSRQMSKYPSGERVRYQCRSPYEMFGDEEVMCLNGNWTEPPQCKDSTGKCGPPPPIDNGDITSFPLSVYAPASSVEYQCQNLYQLEGNKRITCRNGQWSEPPKCLHPCVISREIMENYNIALRWTAKQKLYSRTGESVEFVCKRGYRLSSRSHTLRTTCWDGKLEYPTCAKR
modifications: N-linked glycan chain on SCR-18
On to B4, for which, in data set [1], the dissociation constant Kd was 180 ± 130 µM and the “stoichiometry N” value stood at 2. The Kd in data set [2] stood at 590 ± 150 µM.

B5: Complement Factor H SCR-16/18H fragment (domain or fragment)
chain: GLPCKSPPEISHGVVAHMSDSYQYGEEVTYKCFEGFGIDGPAIAKCLGEKWSHPPSCIKTDCLSLPSFENAIPMGEKKDVYKAGEQVTYTCATYYKMDGASNVTCINSRWTGRPTCRDTSCVNPPTVQNAYIVSRQMSKYPSGERVRYQCRSPYEMFGDEEVMCLNGNWTEPPQCKDST
modifications: N-linked glycan chains on SCR-17 and SCR-18
Regarding B5, in data set [1], the Kd was approximately 10 µM and the percent dimer was 50%. In data set [2], the dissociation constant (Kd) was determined as 6 ± 5 µM, the percent dimer was 60% and the “stoichiometry N” value amounted to 2.

B6: Complement Factor H SCR-16/20 fragment (domain or fragment)
chain: GLPCKSPPEISHGVVAHMSDSYQYGEEVTYKCFEGFGIDGPAIAKCLGEKWSHPPSCIKTDCLSLPSFENAIPMGEKKDVYKAGEQVTYTCATYYKMDGASNVTCINSRWTGRPTCRDTSCVNPPTVQNAYIVSRQMSKYPSGERVRYQCRSPYEMFGDEEVMCLNGNWTEPPQCKDSTGKCGPPPPIDNGDITSFPLSVYAPASSVEYQCQNLYQLEGNKRITCRNGQWSEPPKCLHPCVISREIMENYNIALRWTAKQKLYSRTGESVEFVCKRGYRLSSRSHTLRTTCWDGKLEYPTCAKR
modifications: N-linked glycan chains on SCR-17 and SCR-18
Consider B6, for which, in data set [1], the dissociation constant Kd stood at 90 ± 20 µM and the “stoichiometry N” value is 2. In data set [2], this protein gave a Kd of 31 ± 14 µM and a percent dimer of 40%.
